Tests used:
[1] = O-GlcNAc at S296
ROS detection in BMSCs = details: glycan lost; control: wild-type Foxo3
[2] = cycloheximide chase, Western blot, Foxo3-KO BMSCs; details: glycan lost; control: wild-type Foxo3

B1: FOXO3: S296V (protein)
parent chain: MAEAPASPVPLSPLEVELDPEFEPQSRPRSCTWPLQRPELQASPAKPSGETAADSMIPEEDDDEDDEDGGGRASSAMVIGGGVSSTLGSGLLLEDSAMLLAPGGQDLGSGPASAAGALSGGTPTQLQPQQPLPQPQPGAAGGSGQPRKCSSRRNAWGNLSYADLITRAIESSPDKRLTLSQIYEWMVRCVPYFKDKGDSNSSAGWKNSIRHNLSLHSRFMRVQNEGTGKSSWWIINPDGGKSGKAPRRRAVSMDNSNKYTKSRGRAAKKKAALQAAPESADDSPSQLSKWPGSPTSRSSDELDAWTDFRSRTNSNASTVSGRLSPILASTELDDVQDDDGPLSPMLYSSSASLSPSVSKPCTVELPRLTDMAGTMNLNDGLAENLMDDLLDNIALPPSQPSPPGGLMQRGSSFPYTAKSSGLGSPTGSFNSTVFGPSSLNSLRQSPMQTIQENRPATFSSVSHYGNQTLQDLLASDSLSHSDVMMTQSDPLMSQASTAVSAQNARRNVMLRNDPMMSFAAQPTQGSLVNQNLLHHQHQTQGALGGSRALSNSVSNMGLSDSSSLGSAKHQQQSPASQSMQTLSDSLSGSSLYSASANLPVMGHDKFPSDLDLDMFNGSLECDMESIIRSELMDADGLDFNFDSLISTQNVVGLNVGNFTGAKQASSQSWVPG
degradation_or_half_life [1]: decreases, half-life from 24 hours to 12 hours
other: cellular ROS level (ROS detection in BMSCs): increases
degradation_or_half_life, half_life [2]: decreases, 12 vs 24
